Laboratory results taken from publication PMC3564912, “Single Particle Electron Microscopy Analysis of the Bovine Anion Exchanger 1 Reveals a Flexible Linker Connecting the Cytoplasmic and Membrane Domains” (PLoS ONE, 2013).

Biological target: the molecule itself
Experiment: SEC; Superose 6 10/300, 50 mM Tris-HCl pH 7.5, 0.03% DDM, 0.15 M NaCl; sample after ion exchange and the dimer fraction run again

B1: bovine anion exchanger 1 (AE1) (natural protein, UniProt Q9XSW5 1-930, looked up)
chain: MGDPEEYEDQLEETLEQKEYEDHDSVSIPMEEAEGDTIQEEEAEARVNQLTDTDYHTTSQHPETHKVCVQLRELVMDEKNQEIQWMETARWVGLEENLGKDGIWGRPHLPYLNFWSLLELQKAFAKGTVLLDLPGKSLAEVANQLLDRFTFEGQIQPDDQDNLLRVLLLKHSHASDMEALGGVKPVVVTHSGDPSEPLLPQHPSLETELFCEQGEGSTRGHAPEILGKSPQDWEATLVLVGCARFLKRPVLGFVRLKEPMEPEPKPEGSEEPAVPVRFLIVLLGPEGPNINYTQLGRAAATLMSERVFWNDAYLAQSKETLVQSLEGFLDCSLVLPPLDAPSEKALLSLVPVQKELLRRRYLPSPAKPDPSIFKDLDVKKGPGDTPEDPLQRTGKLFGGLVRDIRRRYPRYLSDITDALSPQVLSAIIFIYFAALTPAITFGGLLGDKTENMIGVSELLLSTALQGIIFSLLGAQPLLVLGFSGPLLVFEEAFYSFCQTNNLEYIVGRVWIGFWLILLVVLVVAFEGSFLVRFISRYTQEIFSFLISLIFIYETFYKLVTIFQDHPLQKNYDHDVLTTPKPQAALPNTALLSLVLMAGTFFLAMMLRKFKNSSYFPGKLRRIIGDFGVPISILIMVMVDALIQDTYTQKLSVPEGLSVSNPTERDWLIHPLGIRVEFPIWMMFASALPALLVFILIFLESQITTLIISKPERKMVKGSGFHLDLLLIIGMGGVGAIFGMPWLSATTVRTVTHANALTVMSKDSTPGAVSQIQGVKEQRISGLLVAVLVGVSILMGPVLRHIPLAVLFGIFLYMGVTSLSGIQLFDRVLLLLKPRKYYPEVPYARRVKTWRMHLFTITQIVCLVVLWVVRSIKQISLALPFILILTVPLRRFLLPFIFRDMELKLLDADDVKLNLDEQNGQDEYDEVAMPV
notes: anion exchanger 1 (AE1, band 3), bovine, native protein from erythrocyte membranes; monomer about 100 kDa; Solubilised in dodecyl maltoside (0.03% DDM in the final buffer); The dimer fraction from size exclusion was used; also called bovine AE1; full-length AE1 dimer; source: purified from bovine erythrocyte membranes (ghosts; DDM extraction, DE-52 ion exchange, Superose 6 size exclusion)
  stoichiometry N: 2
